In patent US20250154519:

Tests used:
[1] = tested on: AceMYBS1 (Actinidia eriantha); test: cell_activity; details: dual-luciferase, tobacco leaves
[2] = tested on: AceMYBS1 + AceGBF3 (Actinidia eriantha); test: cell_activity; details: dual-luciferase, co-expression

Q: What does the source list for AceGGP3 promoter (2.6 kb, P2660)?
A: activity [1]: 3.74 fold; activity [2]: 6.67 fold
